For 29 molecules, Kd results are on record in publication PMC9352680, “A comprehensive thermodynamic model for RNA binding by the Saccharomyces cerevisiae Pumilio protein PUF4”.

Broadly, the Kd is the free concentration of one partner at which half of the binding sites on the other are occupied at equilibrium, for simple one-to-one binding. A high value points to a looser complex.

Where only a bound is given, the exact number is not on record here.

This data set has as its target T1, PUF4 RNA-binding domain (Saccharomyces cerevisiae, UniProt P25339 537-888).
T1 sequence: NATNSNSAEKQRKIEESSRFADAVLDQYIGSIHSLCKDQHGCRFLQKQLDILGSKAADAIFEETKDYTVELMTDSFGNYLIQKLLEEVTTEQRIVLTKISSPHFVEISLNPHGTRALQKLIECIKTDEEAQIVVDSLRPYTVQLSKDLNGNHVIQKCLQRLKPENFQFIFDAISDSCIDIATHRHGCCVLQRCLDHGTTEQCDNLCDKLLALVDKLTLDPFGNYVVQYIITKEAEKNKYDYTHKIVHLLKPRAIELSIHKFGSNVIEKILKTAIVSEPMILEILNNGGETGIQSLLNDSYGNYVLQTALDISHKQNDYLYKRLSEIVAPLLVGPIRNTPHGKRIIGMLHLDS
Description: Mg; RNA-MaP; 20 mM Na-HEPES pH 7.4, 30 mM KOAc, 0.75 mM MgCl2, 0.1% Tween-20, 5% glycerol, 0.1 mg/mL BSA, 2 mM DTT; 25 C; 0.0125-409.6 nM protein. The note with it: tags: N-His6-TEV cleaved; C-SNAP kept, Cy3B-labelled; label: tethered on chip by stalled RNA polymerase.
Consider UCUCUUUUACACUAUACUUCUCUU (ssRNA) [Id_ii_S1_P3E.4_K3.3_C3.2_[C-2T]_H3.3_A3.1_F3.1_T3.2_[T9C]_[A10T]], for which the Kd was determined as 1220 nM.
In turn, UCUCUUUUACACUAUACGUCUCUU (ssRNA) [Id_ii_S1_P3E.4_K3.3_C3.2_[C-2T]_H3.3_A3.1_F3.1_T3.2_[T9C]_[A10G]] gave a Kd of 2060 nM.
To UCUCUUAUACACUAUAUAUCUCUU (ssRNA) [Id_ii_S1_P3E.4_K3.3_C3.2_[C-2A]_H3.3_A3.1_F3.1_T3.2] belongs 31.3 nM; to UCUCUUAGACACUAUACAUCUCUU (ssRNA) [Id_ii_S1_P3E.4_K3.3_C3.2_[C-2A]_[T-1G]_H3.3_A3.1_F3.1_T3.2_[T9C]], above 2300 nM; to UCUCUUAGACACUAUAUCUCUCUU (ssRNA) [Id_ii_S1_P3E.4_K3.3_C3.2_[C-2A]_[T-1G]_H3.3_A3.1_F3.1_T3.2_[A10C]], above 2300 nM.
Molecule UCUCUUAAACACUAUAUUUCUCUU (ssRNA) [Id_ii_S1_P3E.4_K3.3_C3.2_[C-2A]_[T-1A]_H3.3_A3.1_F3.1_T3.2_[A10T]] had a Kd above 2300 nM.
The molecule UCUCUUACACACUAUAACUCUCUU (ssRNA) [Id_ii_S1_P3E.4_K3.3_C3.2_[C-2A]_[T-1C]_H3.3_A3.1_F3.1_T3.2_[T9A]_[A10C]] displayed a Kd above 2300 nM.
Molecule UCUCUUAGACACUAUACCUCUCUU (ssRNA) [Id_ii_S1_P3E.4_K3.3_C3.2_[C-2A]_[T-1G]_H3.3_A3.1_F3.1_T3.2_[T9C]_[A10C]] registered a Kd above 2300 nM.
To UCUCUUAUACACUAUACAUCUCUU (ssRNA) [Id_ii_S1_P3E.4_K3.3_C3.2_[C-2A]_H3.3_A3.1_F3.1_T3.2_[T9C]] belongs 34.9 nM.
UCUCUUUCACACUAUAAAUCUCUU (ssRNA) [Id_ii_S1_P3E.4_K3.3_C3.2_[C-2T]_[T-1C]_H3.3_A3.1_F3.1_T3.2_[T9A]] returned a Kd above 2300 nM.
To UCUCUUAUACACUAUAACUCUCUU (ssRNA) [Id_ii_S1_P3E.4_K3.3_C3.2_[C-2A]_H3.3_A3.1_F3.1_T3.2_[T9A]_[A10C]] belongs 46.2 nM; to UCUCUUGCACACUAUAUUUCUCUU (ssRNA) [Id_ii_S1_P3E.4_K3.3_C3.2_[C-2G]_[T-1C]_H3.3_A3.1_F3.1_T3.2_[A10T]], 94.8 nM; to UCUCUUUCACACUAUACCUCUCUU (ssRNA) [Id_ii_S1_P3E.4_K3.3_C3.2_[C-2T]_[T-1C]_H3.3_A3.1_F3.1_T3.2_[T9C]_[A10C]], above 2300 nM.
Molecule UCUCUUGUACACUAUAAUUCUCUU (ssRNA) [Id_ii_S1_P3E.4_K3.3_C3.2_[C-2G]_H3.3_A3.1_F3.1_T3.2_[T9A]_[A10T]] gave a Kd of 1.16 nM.
Turning to UCUCUUACACACUAUAGAUCUCUU (ssRNA) [Id_ii_S1_P3E.4_K3.3_C3.2_[C-2A]_[T-1C]_H3.3_A3.1_F3.1_T3.2_[T9G]], the Kd was above 2300 nM.
Under UCUCUUUUACACUAUAAGUCUCUU (ssRNA) [Id_ii_S1_P3E.4_K3.3_C3.2_[C-2T]_H3.3_A3.1_F3.1_T3.2_[T9A]_[A10G]] stands 1520 nM.
UCUCUUAAACACUAUACAUCUCUU (ssRNA) [Id_ii_S1_P3E.4_K3.3_C3.2_[C-2A]_[T-1A]_H3.3_A3.1_F3.1_T3.2_[T9C]] showed a Kd above 2300 nM.
The molecule UCUCUUGCACACUAUACAUCUCUU (ssRNA) [Id_ii_S1_P3E.4_K3.3_C3.2_[C-2G]_[T-1C]_H3.3_A3.1_F3.1_T3.2_[T9C]] registered a Kd of 275 nM.
Consider UCUCUUUUACACUAUACAUCUCUU (ssRNA) [Id_ii_S1_P3E.4_K3.3_C3.2_[C-2T]_H3.3_A3.1_F3.1_T3.2_[T9C]], for which the affinity, expressed as Kd, was 1140 nM.
Molecule UCUCUUAUACACUAUACGUCUCUU (ssRNA) [Id_ii_S1_P3E.4_K3.3_C3.2_[C-2A]_H3.3_A3.1_F3.1_T3.2_[T9C]_[A10G]] yielded a Kd of 74.5 nM.
Consider UCUCUUUUACACUAUAGCUCUCUU (ssRNA) [Id_ii_S1_P3E.4_K3.3_C3.2_[C-2T]_H3.3_A3.1_F3.1_T3.2_[T9G]_[A10C]], for which the Kd is above 2300 nM.
For UCUCUUUUUAUAGUAUCUCUU (ssRNA) [Ib_S1_P4E.1_K4.1_C4.1_H4.1_[G2T]_A4.1_[T7G]_F4.1_T4.1], the Kd was above 2300 nM.
In turn, UCUCUUUGACACUAUACAUCUCUU (ssRNA) [Id_ii_S1_P3E.4_K3.3_C3.2_[C-2T]_[T-1G]_H3.3_A3.1_F3.1_T3.2_[T9C]] yielded a Kd above 2300 nM.
Consider UCUCUUAGACACUAUAUUUCUCUU (ssRNA) [Id_ii_S1_P3E.4_K3.3_C3.2_[C-2A]_[T-1G]_H3.3_A3.1_F3.1_T3.2_[A10T]], for which the Kd was above 2300 nM.
The molecule UCUCUUUUACACUAUAUAUCUCUU (ssRNA) [Id_ii_S1_P3E.4_K3.3_C3.2_[C-2T]_H3.3_A3.1_F3.1_T3.2] yielded a Kd of 1030 nM.
Molecule UCUCUUUUACACUAUAUCUCUCUU (ssRNA) [Id_ii_S1_P3E.4_K3.3_C3.2_[C-2T]_H3.3_A3.1_F3.1_T3.2_[A10C]] registered a Kd of 1380 nM.
To UCUCUUAAACACUAUAGCUCUCUU (ssRNA) [Id_ii_S1_P3E.4_K3.3_C3.2_[C-2A]_[T-1A]_H3.3_A3.1_F3.1_T3.2_[T9G]_[A10C]] belongs above 2300 nM; to UCUCUUACACACUAUAGUUCUCUU (ssRNA) [Id_ii_S1_P3E.4_K3.3_C3.2_[C-2A]_[T-1C]_H3.3_A3.1_F3.1_T3.2_[T9G]_[A10T]], above 2300 nM.
Molecule UCUCUUUAUAUUUUAUCUCUU (ssRNA) [Ib_S1_P4E.1_K4.1_C4.1_H4.1_[G2A]_A4.1_[A6T]_F4.1_T4.1] registered a Kd of 163 nM.
